In patent US20020197661:

Legend:
Ac-PANK-ACC [1] = system: Ac-PANK-ACC
Ac-PRNR-ACC [2] = system: Ac-PRNR-ACC
Ac-PRTK-ACC [3] = system: Ac-PRTK-ACC
[4] = system: Acetyl-Prolyl-Arginyl-Asparaginyl-Lysyl-aminoacetamide coumarin (Ac-PRNK-ACC)
Ac-PANK-ACC [5] = assay: single substrate kinetics, fluorogenic ACC release, Skin (β-I) Tryptase
Ac-PRNR-ACC [6] = assay: as above
Ac-PRTK-ACC [7] = assay: as above
[8] = system: Acetyl-Prolyl-Arginyl-Asparaginyl-Lysyl-aminoacetamide coumarin (Ac-PRNK-ACC); assay: as above
Ac-PANK-ACC [9] = assay: single substrate kinetics, fluorogenic ACC release, Lung (β-II) Tryptase
Ac-PRNR-ACC [10] = assay: as above
Ac-PRTK-ACC [11] = assay: as above
[12] = system: Acetyl-Prolyl-Arginyl-Asparaginyl-Lysyl-aminoacetamide coumarin (Ac-PRNK-ACC); assay: as above

Chain of recombinant human βI-tryptase (chain, as listed by the source): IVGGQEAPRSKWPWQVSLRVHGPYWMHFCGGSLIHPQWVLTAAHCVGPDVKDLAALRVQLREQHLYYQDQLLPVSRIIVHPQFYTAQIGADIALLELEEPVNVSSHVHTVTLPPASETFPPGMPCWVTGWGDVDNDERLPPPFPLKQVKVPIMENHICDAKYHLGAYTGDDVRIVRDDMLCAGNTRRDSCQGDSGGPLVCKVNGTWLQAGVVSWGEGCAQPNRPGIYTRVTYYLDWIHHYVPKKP

Substance	kcat (Ac-PANK-ACC [1]) [s⁻¹]	kcat/km (s^-1M^-1) (Ac-PANK-ACC [1])	kcat (Ac-PRNR-ACC [2]) [s⁻¹]	kcat/km (s^-1M^-1) (Ac-PRNR-ACC [2])	kcat (Ac-PRTK-ACC [3]) [s⁻¹]	kcat/km (s^-1M^-1) (Ac-PRTK-ACC [3])	cleavage of the fluorogenic substrate (fluorescence, excitation 355 nm, emission 460 nm) [4]	kcat [4] [s⁻¹]	kcat/km (s^-1M^-1) [4] [s^-1M^-1]	preference over Ac-PRTK-ACC (kcat/Km) [4]	Km (Ac-PANK-ACC [5]) [µM]	Km (Ac-PRNR-ACC [6]) [µM]	Km (Ac-PRTK-ACC [7]) [µM]	Km [8] [µM]	activity relative to Ac-PRNK-ACC (kcat/Km) (Ac-PRNR-ACC [2])	preference over Ac-PANK-ACC (kcat/Km) [4]	Km (Ac-PANK-ACC [9]) [µM]	Km (Ac-PRNR-ACC [10]) [µM]	Km (Ac-PRTK-ACC [11]) [µM]	Km [12] [µM]
recombinant human βI-tryptase	19.1	140000	20.9	1.12e+06	18.3	780000	Ac-PRNK-ACC (SEQ. ID. NO: 12) is a specific substrate for tryptase in relation to other blood borne serine proteases	17.8	1.23e+06	A minimal preference, approximately 2-fold, for P2-asparagine over P2-threonine was seen for both enzymes	133	18.6	23.4	14.5						
Human alpha-thrombin (Haematologic Technologies, Inc.)							Ac-PRNK-ACC (SEQ. ID. NO: 12) is a specific substrate for tryptase in relation to other blood borne serine proteases													
recombinant human βII-tryptase	20.3	180000	21.8	1.31e+06	18.7	1.27e+06		16.8	1.89e+06	A minimal preference, approximately 2-fold, for P2-asparagine over P2-threonine was seen for both enzymes					about 70-90% of the activity of Ac-PRNK-ACC	an approximately 10-fold preference for Ac-PRNK-ACC (SEQ. ID. NO: 12) over Ac-PANK-ACC	110	16.5	14.7	8.9
